Source: patent US20060122108A1

Columns and labels:
BSA [1] = target: BSA (UniProt P02769); test: phage ELISA, control well (BSA blocking solution only); phage 859 ng/well; 100% = SEQ 5 phage at 710 ng/well
BSA [2] = target: BSA (UniProt P02769); test: phage ELISA, control well (BSA blocking solution only); phage 1 ng/well; 100% = SEQ 5 phage at 710 ng/well
BSA [3] = target: BSA (UniProt P02769); test: phage ELISA, control well (BSA blocking solution only); phage 0 ng/well (printed); 100% = SEQ 5 phage at 710 ng/well
BSA [4] = target: BSA (UniProt P02769); test: phage ELISA, control well (BSA blocking solution only); phage 4 ng/well; 100% = SEQ 5 phage at 710 ng/well
BSA [5] = target: BSA (UniProt P02769); test: phage ELISA, control well (BSA blocking solution only); phage 132 ng/well; 100% = SEQ 5 phage at 710 ng/well
BSA [6] = target: BSA (UniProt P02769); test: phage ELISA, control well (BSA blocking solution only); phage 22 ng/well; 100% = SEQ 5 phage at 710 ng/well
BSA [7] = target: BSA (UniProt P02769); test: phage ELISA, control well (BSA blocking solution only); phage 134 ng/well; 100% = SEQ 5 phage at 710 ng/well
BSA [8] = target: BSA (UniProt P02769); test: phage ELISA, control well (BSA blocking solution only); phage 870 ng/well; 100% = SEQ 5 phage at 710 ng/well
BSA [9] = target: BSA (UniProt P02769); test: phage ELISA, control well (BSA blocking solution only); phage 18 ng/well; 100% = SEQ 5 phage at 710 ng/well
BSA [10] = target: BSA (UniProt P02769); test: phage ELISA, control well (BSA blocking solution only); phage 710 ng/well; 100% = SEQ 5 phage at 710 ng/well
BSA [11] = target: BSA (UniProt P02769); test: phage ELISA, control well (BSA blocking solution only); phage 3 ng/well; 100% = SEQ 5 phage at 710 ng/well
BSA [12] = target: BSA (UniProt P02769); test: phage ELISA, control well (BSA blocking solution only); phage 109 ng/well; 100% = SEQ 5 phage at 710 ng/well
BSA [13] = target: BSA (UniProt P02769); test: phage ELISA, control well (BSA blocking solution only); phage 20 ng/well; 100% = SEQ 5 phage at 710 ng/well
BSA [14] = target: BSA (UniProt P02769); test: phage ELISA, control well (BSA blocking solution only); phage 122 ng/well; 100% = SEQ 5 phage at 710 ng/well
BSA [15] = target: BSA (UniProt P02769); test: phage ELISA, control well (BSA blocking solution only); phage 796 ng/well; 100% = SEQ 5 phage at 710 ng/well

Sequence of BSA (P02769 25-607 limits assumed): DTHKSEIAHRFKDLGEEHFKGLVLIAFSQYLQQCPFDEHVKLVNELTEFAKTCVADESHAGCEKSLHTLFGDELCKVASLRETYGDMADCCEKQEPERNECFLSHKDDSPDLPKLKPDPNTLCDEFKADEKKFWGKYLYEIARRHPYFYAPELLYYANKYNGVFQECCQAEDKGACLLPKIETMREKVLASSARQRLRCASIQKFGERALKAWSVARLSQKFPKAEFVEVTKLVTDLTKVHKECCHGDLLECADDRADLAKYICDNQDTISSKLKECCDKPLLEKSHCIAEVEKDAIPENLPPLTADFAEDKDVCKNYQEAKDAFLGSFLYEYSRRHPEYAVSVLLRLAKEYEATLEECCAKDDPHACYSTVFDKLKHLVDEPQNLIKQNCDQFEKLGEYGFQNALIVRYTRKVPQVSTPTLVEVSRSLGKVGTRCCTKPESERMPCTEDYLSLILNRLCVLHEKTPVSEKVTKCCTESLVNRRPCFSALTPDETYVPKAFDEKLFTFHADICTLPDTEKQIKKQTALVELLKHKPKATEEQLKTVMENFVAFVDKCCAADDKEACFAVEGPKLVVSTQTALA

Binder | percentage of binding (BSA [1]) | percentage of binding (BSA [2]) | percentage of binding (BSA [3]) | percentage of binding (BSA [4]) | percentage of binding (BSA [5]) | percentage of binding (BSA [6]) | percentage of binding (BSA [7]) | percentage of binding (BSA [8]) | percentage of binding (BSA [9]) | percentage of binding (BSA [10]) | percentage of binding (BSA [11]) | percentage of binding (BSA [12]) | percentage of binding (BSA [13]) | percentage of binding (BSA [14]) | percentage of binding (BSA [15])
QIEPWFTPEDFP (peptide, not shown: large carriers) [phage presenting SEQ ID NO: 3 (…)] | 10% | 0% | 0% | 1% | 5% | 2% |  |  |  |  |  |  |  |  | 
TRLAPLVFPLDY (peptide, not shown: large carriers) [phage presenting SEQ ID NO: 4 (…)] |  | 0% | 0% | 0% |  | 1% | 4% | 10% |  |  |  |  |  |  | 
SWLQMPWALVRT (peptide, not shown: large carriers) [phage presenting SEQ ID NO: 5 (…)] |  | 0% | 0% |  |  |  |  |  | 1% | 5% | 1% | 3% |  |  | 
LWQPPLIPGIDF (peptide, not shown: large carriers) [phage presenting SEQ ID NO: 2 (…)] |  | 1% | 0% |  |  |  |  |  |  |  | 2% |  | 4% | 9% | 12%
